This is an account of results in patent publication US20190211092A1 (NATIONAL UNIVERSITY CORPORATION TOKYO MEDICAL AND DENTAL …, published 2019).

The assay has as its target T1, GST-fusion HMGB1 protein (Wister rat HMGB1, full length, expressed from pGEX-3X) (rat (Wister), UniProt P63159 2-215).
T1 construct: mature; GST served as the negative control protein in screening; also called HMGB1 solid-phase plate; not shown: glutathione S-transferase (GST) tag of the pGEX-3X vector
T1 sequence (looked up): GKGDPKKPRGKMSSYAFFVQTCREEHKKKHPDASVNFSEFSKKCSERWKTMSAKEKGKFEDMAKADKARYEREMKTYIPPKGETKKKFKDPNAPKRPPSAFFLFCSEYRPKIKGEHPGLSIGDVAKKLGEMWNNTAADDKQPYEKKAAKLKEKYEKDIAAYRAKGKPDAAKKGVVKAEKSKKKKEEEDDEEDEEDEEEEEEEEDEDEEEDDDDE
Description: ELISA on GST-fusion HMGB1 and SPR (FIGS. 1A and 1B). How it is done: Then, to select anti-HMGB1 monoclonal antibodies, the ELISA method was carried out as described below. First, part of the culture solution after 2 weeks was sampled and added in […] to a microplate in which 250 ng/well of the HMGB1 protein or the negative control protein (GST) was immobilized. Subsequently, reaction was carried out at room temperature for 1 hour, followed by washing with PBS three times. A secondary antibody (HRP-labeled anti-mouse IgG, manufactured by MEDICAL & BIOLOGICAL LABORATORIES CO., LTD., code number 330) was diluted in accordance with the package insert and added in 50 μL/well, which was reacted for one hour at room temperature, followed by washing with PBS three times after the reaction. Thereafter, a TMB reagent (MOSS, Inc., Chicago, Ill., USA, USA) was added in 50 μL/well, followed by enzyme chromogenic reaction for 15 minutes. Subsequently, after the enzyme reaction was stopped with 1.5 N phosphoric acid, the absorbance was measured with a plate reader with 450 nm (reference 630 nm) to select clones that reacts specifically with the HMGB1 solid-phase plate, establishing anti-HMGB1 monoclonal antibodies.

B1: anti-HMGB1 monoclonal antibody (2C8C) (antibody, V domains shown)
VH: QVQLQQSGPELVKPGASVKLSCKASGYTFTDYTIHWVKQSPGQGLEWIGWIYPGSGNTKYNDKFKGKATMTADKSSSTAYMQLSSLTSEDSAVYFCARGFAYWGQGTLVTVSA
VL: DIVLTQSPATLSVTPGDSVSLSCRASQSISNNLHWYQQKSHESPRLLIKYASQSISGIPSRFSGSGSGTDFTLSINSVETEDFGMYFCQQTNSWPLTFGAGTKLELK
notes: also called 2C8C antibody; clone 2C8C
As for B1, the binding result is reported as “binds”.
